± gives the uncertainty stated by the source.
B1: Receptor-interacting serine/threonine-protein kinase 2, residues 438 to 518; numbered along this chain, O43353 (parent)
chain: QWIQSKREDIVNQMTEACLNQSLDALLSRDLIMKEDYELVSTKPTRTSKVRQLLDTTDIQGEEFAKVIVQKLKDNKQMGLQ

Variants of: B1
Test: abundance fitness (aPCA) (normalised: wild type 0, dead -1); higher = more abundant; growth selection in yeast, the domain comes from the species named
Conditions: Homo sapiens
Variant L27Q has an abundance fitness of -0.293 ± 0.22.
With Y37P the abundance fitness was -0.614 ± 0.084.
Y37L showed an abundance fitness of -0.186 ± 0.068.
With Y37D the abundance fitness was -0.471 ± 0.17.
With Y37V the abundance fitness was -0.413 ± 0.091.
Y37C gave an abundance fitness of -0.547 ± 0.21.
In the case of Y37S, the abundance fitness is reported as -0.518 ± 0.045.
Y37M showed an abundance fitness of -0.788 ± 0.2.
With Y37A the abundance fitness was -0.084 ± 0.067.
With Y37I the abundance fitness was -0.401 ± 0.27.
In the case of Y37K, the abundance fitness is reported as -0.412 ± 0.19.
Work on Y37Q yielded an abundance fitness of -0.547 ± 0.11.
Work on Y37H yielded an abundance fitness of -0.568 ± 0.23.
Y37N gave an abundance fitness of -0.401 ± 0.14.
In the case of Y37G, the abundance fitness is reported as -0.519 ± 0.06.
With K34G the abundance fitness was -0.357 ± 0.091.
Work on K34R yielded an abundance fitness of -0.124 ± 0.063.
In the case of K34L, the abundance fitness is reported as -0.079 ± 0.097.
K34M gave an abundance fitness of -0.312 ± 0.16.
For K34V, the abundance fitness was -0.242 ± 0.13.
Work on K34T yielded an abundance fitness of -0.515 ± 0.22.
Work on K34A yielded an abundance fitness of -0.094 ± 0.078.
With K34P the abundance fitness was 0.024 ± 0.066.
K34H gave an abundance fitness of -0.528 ± 0.17.
Variant K34D has an abundance fitness of -0.448 ± 0.24.
K34W gave an abundance fitness of -0.243 ± 0.092.
Work on K34S yielded an abundance fitness of -0.23 ± 0.065.
With K34C the abundance fitness was -0.199 ± 0.22.
For K34E, the abundance fitness was 0.024 ± 0.11.
Variant K34F has an abundance fitness of -0.191 ± 0.17.
L19K gave an abundance fitness of -0.884 ± 0.34.
For L19P, the abundance fitness was -0.3 ± 0.16.
With L19M the abundance fitness was -0.306 ± 0.12.
Work on L19S yielded an abundance fitness of -0.792 ± 0.16.
In the case of L19Y, the abundance fitness is reported as -0.607 ± 0.24.
In the case of L19N, the abundance fitness is reported as -0.454 ± 0.34.
Work on L19A yielded an abundance fitness of -0.447 ± 0.1.
With L19I the abundance fitness was 0.024 ± 0.18.
L19W showed an abundance fitness of -1 ± 0.39.
Work on L19G yielded an abundance fitness of -0.502 ± 0.088.
For L19F, the abundance fitness was -0.833 ± 0.27.
For L19V, the abundance fitness was -0.25 ± 0.097.
L19T showed an abundance fitness of -0.112 ± 0.3.
Variant L19Q has an abundance fitness of -0.351 ± 0.14.
With E35A the abundance fitness was -0.223 ± 0.085.
Variant E35P has an abundance fitness of -0.304 ± 0.096.
Variant E35R has an abundance fitness of -0.043 ± 0.073.
E35K gave an abundance fitness of 0.024 ± 0.089.
E35V showed an abundance fitness of -0.408 ± 0.097.
In the case of E35G, the abundance fitness is reported as -0.256 ± 0.07.
With E35Q the abundance fitness was -0.233 ± 0.1.
Work on E35W yielded an abundance fitness of -0.252 ± 0.12.
With E35D the abundance fitness was -0.142 ± 0.14.
In the case of E35I, the abundance fitness is reported as -1.12 ± 0.47.
For E35H, the abundance fitness was 0.055 ± 0.17.
With E35N the abundance fitness was -0.521 ± 0.17.
With E35T the abundance fitness was -0.118 ± 0.12.
With E35Y the abundance fitness was -0.514 ± 0.21.
In the case of E35M, the abundance fitness is reported as -0.703 ± 0.11.
For E35F, the abundance fitness was -0.693 ± 0.19.
In the case of D30C, the abundance fitness is reported as -0.332 ± 0.15.
Variant D30W has an abundance fitness of -1.12 ± 0.24.
For D30V, the abundance fitness was -0.657 ± 0.12.
D30P showed an abundance fitness of -1.08 ± 0.24.
D30R gave an abundance fitness of -0.036 ± 0.049.
D30Q gave an abundance fitness of -0.073 ± 0.077.
With D30H the abundance fitness was 0.045 ± 0.11.
D30M gave an abundance fitness of -0.814 ± 0.16.
Variant D30E has an abundance fitness of -0.03 ± 0.089.
With D30N the abundance fitness was -0.401 ± 0.18.
With D30S the abundance fitness was -0.166 ± 0.087.
For D30A, the abundance fitness was -0.106 ± 0.072.
With D30K the abundance fitness was 0.06 ± 0.11.
Work on D30L yielded an abundance fitness of -0.615 ± 0.081.
D30G gave an abundance fitness of 0.122 ± 0.055.
In the case of D30Y, the abundance fitness is reported as -0.84 ± 0.21.
Variant L31R has an abundance fitness of -0.732 ± 0.087.
Work on L31W yielded an abundance fitness of -0.949 ± 0.16.
For L31G, the abundance fitness was -0.798 ± 0.087.
Variant L31Y has an abundance fitness of -0.601 ± 0.24.
L31K gave an abundance fitness of -0.574 ± 0.2.
In the case of L31P, the abundance fitness is reported as -0.588 ± 0.063.
For L31D, the abundance fitness was -0.456 ± 0.2.
L31V showed an abundance fitness of -0.588 ± 0.13.
Variant L31H has an abundance fitness of -0.448 ± 0.39.
In the case of L31M, the abundance fitness is reported as -0.204 ± 0.13.
L31S showed an abundance fitness of -0.608 ± 0.048.
With L31F the abundance fitness was -0.74 ± 0.18.
In the case of L31I, the abundance fitness is reported as -0.973 ± 0.45.
For L31N, the abundance fitness was -0.782 ± 0.35.
For L31A, the abundance fitness was -0.615 ± 0.089.
D24Y gave an abundance fitness of -0.221 ± 0.22.
D24E gave an abundance fitness of 0.034 ± 0.33.
In the case of D24R, the abundance fitness is reported as -0.169 ± 0.057.
D24G gave an abundance fitness of -0.692 ± 0.1.
D24K showed an abundance fitness of -0.328 ± 0.19.
In the case of D24L, the abundance fitness is reported as -0.569 ± 0.11.
Work on D24C yielded an abundance fitness of -0.337 ± 0.15.
D24M gave an abundance fitness of -0.719 ± 0.33.
With D24P the abundance fitness was -0.68 ± 0.099.
D24S gave an abundance fitness of -0.19 ± 0.077.
For D24T, the abundance fitness was -0.28 ± 0.045.
With D24F the abundance fitness was -0.779 ± 0.22.
D24H showed an abundance fitness of -0.574 ± 0.16.
D24W showed an abundance fitness of -0.881 ± 0.21.
D24V showed an abundance fitness of -0.434 ± 0.1.
In the case of D24A, the abundance fitness is reported as -0.106 ± 0.084.
Work on M33E yielded an abundance fitness of 0.067 ± 0.11.
Work on M33K yielded an abundance fitness of -0.088 ± 0.17.
For M33W, the abundance fitness was -0.646 ± 0.094.
For M33R, the abundance fitness was 0.141 ± 0.053.
In the case of M33Q, the abundance fitness is reported as 0.145 ± 0.11.
Work on M33N yielded an abundance fitness of -0.132 ± 0.36.
For M33Y, the abundance fitness was -0.439 ± 0.23.
Work on M33L yielded an abundance fitness of 0.059 ± 0.061.
Work on M33I yielded an abundance fitness of -0.075 ± 0.12.
M33S showed an abundance fitness of 0.195 ± 0.073.
In the case of M33A, the abundance fitness is reported as 0.199 ± 0.071.
For M33C, the abundance fitness was 0.115 ± 0.097.
Variant M33P has an abundance fitness of -0.039 ± 0.054.
Variant M33T has an abundance fitness of 0.247 ± 0.095.
In the case of M33F, the abundance fitness is reported as -0.555 ± 0.15.
Work on S22F yielded an abundance fitness of -0.945 ± 0.39.
S22L gave an abundance fitness of -0.057 ± 0.072.
Work on S22Y yielded an abundance fitness of -0.911 ± 0.25.
With S22Q the abundance fitness was -0.796 ± 0.15.
For S22G, the abundance fitness was -0.5 ± 0.075.
For S22R, the abundance fitness was -1.05 ± 0.13.
In the case of S22V, the abundance fitness is reported as 0.1 ± 0.069.
Variant S22A has an abundance fitness of 0.066 ± 0.051.
For S22C, the abundance fitness was -0.017 ± 0.13.
In the case of S22N, the abundance fitness is reported as -0.71 ± 0.46.
Variant S22I has an abundance fitness of 0.565 ± 0.49.
For S22P, the abundance fitness was -0.621 ± 0.059.
For S22D, the abundance fitness was -0.386 ± 0.15.
Work on L23V yielded an abundance fitness of -0.509 ± 0.11.
Work on L23E yielded an abundance fitness of -0.445 ± 0.21.
With L23S the abundance fitness was -0.616 ± 0.12.
With L23T the abundance fitness was -0.368 ± 0.12.
Variant L23F has an abundance fitness of -0.764 ± 0.24.
L23I showed an abundance fitness of -0.918 ± 0.49.
L23N gave an abundance fitness of -0.282 ± 0.23.
L23G showed an abundance fitness of -0.67 ± 0.11.
Variant L23A has an abundance fitness of -0.397 ± 0.11.
With L23K the abundance fitness was -0.559 ± 0.3.
Variant L23Q has an abundance fitness of -0.424 ± 0.14.
For L23R, the abundance fitness was -0.695 ± 0.079.
Work on L23H yielded an abundance fitness of -0.174 ± 0.13.
For L23M, the abundance fitness was -0.274 ± 0.2.
L23W gave an abundance fitness of -0.911 ± 0.3.
L26R showed an abundance fitness of -0.425 ± 0.05.
L26G showed an abundance fitness of -0.572 ± 0.081.
L26D showed an abundance fitness of -0.833 ± 0.34.
In the case of L26E, the abundance fitness is reported as -0.364 ± 0.11.
Variant L26V has an abundance fitness of -0.649 ± 0.069.
In the case of L26M, the abundance fitness is reported as -0.662 ± 0.13.
Work on L26K yielded an abundance fitness of -0.374 ± 0.15.
L26W gave an abundance fitness of -1.02 ± 0.17.
For L26A, the abundance fitness was -0.313 ± 0.059.
In the case of L26H, the abundance fitness is reported as -0.289 ± 0.18.
L26F gave an abundance fitness of -1.03 ± 0.25.
With L26S the abundance fitness was -0.419 ± 0.069.
For L26P, the abundance fitness was -0.374 ± 0.068.
L26Y gave an abundance fitness of -0.879 ± 0.3.
With L26T the abundance fitness was -0.657 ± 0.13.
L26C showed an abundance fitness of -0.618 ± 0.11.
In the case of L26Q, the abundance fitness is reported as -0.31 ± 0.061.
